The text below walks through data of paper PMC4644428.

One data set concerns the target CRPG (UniProt P0ACJ8 1-210, R124N;T128C;S129T). Kind of data set: fluorescence polarization. Background: Polarisation of emitted light reports the rotation of a fluorescent probe.
In another data set the target is CRP (wild type) (UniProt P0ACJ8 1-210). Kind of data set: fluorescence polarization.

B1: 26-mer CRP consensus (dsDNA)
DNA 1: GTAAATGTGATGTACATCACATGGAT
DNA 2: ATCCATGTGATGTACATCACATTTAC
On to B1, for which the binding result in the data set with CRPG and with CRP (wild type) was “binds” each time.
